This passage reports Kd results from PMC11741606 (2025).

Common to all, as to assay: SPR
Assay [1] deals with T1, dAPN-H751R ectodomain, hFc-tagged (dog (Canis lupus familiaris), UniProt P79143 33-975, H751R).
T1 sequence: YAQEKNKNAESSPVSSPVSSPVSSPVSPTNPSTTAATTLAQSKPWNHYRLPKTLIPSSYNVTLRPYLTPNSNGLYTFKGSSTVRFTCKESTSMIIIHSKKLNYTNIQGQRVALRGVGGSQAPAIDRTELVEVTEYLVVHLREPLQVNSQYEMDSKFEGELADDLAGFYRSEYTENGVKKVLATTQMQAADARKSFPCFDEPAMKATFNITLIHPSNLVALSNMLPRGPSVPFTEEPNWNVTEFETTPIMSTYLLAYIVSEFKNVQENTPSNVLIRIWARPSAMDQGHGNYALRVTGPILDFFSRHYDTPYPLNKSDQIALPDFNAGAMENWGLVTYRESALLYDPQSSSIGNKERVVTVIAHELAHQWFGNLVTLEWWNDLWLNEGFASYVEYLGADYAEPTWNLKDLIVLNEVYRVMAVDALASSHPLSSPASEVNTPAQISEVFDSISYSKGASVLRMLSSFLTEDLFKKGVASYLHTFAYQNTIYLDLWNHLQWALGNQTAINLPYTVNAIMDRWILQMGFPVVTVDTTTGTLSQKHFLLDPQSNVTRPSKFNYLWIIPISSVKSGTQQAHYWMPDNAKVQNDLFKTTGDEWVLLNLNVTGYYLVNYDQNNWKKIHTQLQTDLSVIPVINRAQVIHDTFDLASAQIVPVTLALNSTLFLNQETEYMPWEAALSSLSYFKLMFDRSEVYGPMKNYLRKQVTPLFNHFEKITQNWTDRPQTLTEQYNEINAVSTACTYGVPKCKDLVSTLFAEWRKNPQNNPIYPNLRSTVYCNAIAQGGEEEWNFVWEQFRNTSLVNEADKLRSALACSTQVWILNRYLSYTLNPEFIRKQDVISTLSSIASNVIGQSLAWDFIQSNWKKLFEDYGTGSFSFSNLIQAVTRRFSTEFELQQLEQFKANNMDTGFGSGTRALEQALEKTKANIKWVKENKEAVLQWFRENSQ

Assay [2] has as its target T2, dAPN-Q746K-D750E ectodomain, hFc-tagged (dog (Canis lupus familiaris), UniProt P79143 33-975, Q746K | D750E).
T2 sequence: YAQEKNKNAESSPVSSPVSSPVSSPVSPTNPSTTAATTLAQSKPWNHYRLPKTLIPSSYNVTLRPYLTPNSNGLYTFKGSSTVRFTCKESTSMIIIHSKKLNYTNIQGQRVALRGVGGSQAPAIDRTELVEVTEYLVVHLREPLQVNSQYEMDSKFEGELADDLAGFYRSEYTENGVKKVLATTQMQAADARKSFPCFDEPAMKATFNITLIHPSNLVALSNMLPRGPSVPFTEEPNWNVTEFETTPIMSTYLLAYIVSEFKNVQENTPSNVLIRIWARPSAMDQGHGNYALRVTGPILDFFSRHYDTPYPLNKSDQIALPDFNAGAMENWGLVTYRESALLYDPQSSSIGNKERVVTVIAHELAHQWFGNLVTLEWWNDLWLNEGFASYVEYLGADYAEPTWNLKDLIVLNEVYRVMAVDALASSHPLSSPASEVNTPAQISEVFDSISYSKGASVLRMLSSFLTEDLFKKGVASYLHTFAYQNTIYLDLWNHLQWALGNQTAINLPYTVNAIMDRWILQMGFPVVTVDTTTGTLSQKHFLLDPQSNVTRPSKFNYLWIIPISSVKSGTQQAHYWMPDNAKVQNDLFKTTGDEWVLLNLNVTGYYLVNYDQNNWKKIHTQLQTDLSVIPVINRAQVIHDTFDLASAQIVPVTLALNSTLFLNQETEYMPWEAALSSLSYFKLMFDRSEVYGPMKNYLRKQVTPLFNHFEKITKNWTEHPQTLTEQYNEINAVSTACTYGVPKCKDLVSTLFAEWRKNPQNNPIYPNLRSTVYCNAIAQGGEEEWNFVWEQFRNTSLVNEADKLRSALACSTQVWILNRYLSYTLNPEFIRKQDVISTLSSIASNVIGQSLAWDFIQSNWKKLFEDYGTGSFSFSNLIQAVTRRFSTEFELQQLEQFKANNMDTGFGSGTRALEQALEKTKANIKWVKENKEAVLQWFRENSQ

The target in assay [3] is T3, dAPN-D750E ectodomain, hFc-tagged (dog (Canis lupus familiaris), UniProt P79143 33-975, D750E).
T3 sequence: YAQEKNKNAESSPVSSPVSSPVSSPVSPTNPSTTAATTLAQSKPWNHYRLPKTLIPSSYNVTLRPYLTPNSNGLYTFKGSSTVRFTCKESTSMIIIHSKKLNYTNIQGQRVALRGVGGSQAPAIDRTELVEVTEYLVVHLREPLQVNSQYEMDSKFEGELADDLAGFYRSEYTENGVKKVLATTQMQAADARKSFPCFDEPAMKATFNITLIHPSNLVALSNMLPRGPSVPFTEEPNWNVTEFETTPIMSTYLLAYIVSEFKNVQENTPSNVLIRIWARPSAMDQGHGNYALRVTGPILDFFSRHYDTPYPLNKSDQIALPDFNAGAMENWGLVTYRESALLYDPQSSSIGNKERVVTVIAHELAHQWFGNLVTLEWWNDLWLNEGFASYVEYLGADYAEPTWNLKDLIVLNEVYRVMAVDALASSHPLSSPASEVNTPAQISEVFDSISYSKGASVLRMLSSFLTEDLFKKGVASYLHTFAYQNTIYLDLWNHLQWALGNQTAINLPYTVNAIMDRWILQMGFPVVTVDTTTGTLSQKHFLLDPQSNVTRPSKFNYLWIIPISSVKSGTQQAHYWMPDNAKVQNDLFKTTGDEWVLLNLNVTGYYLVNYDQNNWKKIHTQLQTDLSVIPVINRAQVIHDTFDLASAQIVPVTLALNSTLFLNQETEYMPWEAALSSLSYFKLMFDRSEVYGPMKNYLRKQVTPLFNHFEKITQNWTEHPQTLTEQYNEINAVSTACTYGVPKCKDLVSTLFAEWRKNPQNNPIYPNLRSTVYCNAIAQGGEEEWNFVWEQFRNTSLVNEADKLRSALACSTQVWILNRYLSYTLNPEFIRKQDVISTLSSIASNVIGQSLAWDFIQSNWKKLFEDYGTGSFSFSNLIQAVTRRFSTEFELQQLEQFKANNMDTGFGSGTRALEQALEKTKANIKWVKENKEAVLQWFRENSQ

B1: TGEV RBD (receptor-binding domain of the transmissible gastroenteritis coronavirus spike protein) (domain or fragment)
chain: TANLNNGFYPVSSSEVGLVNKSVVLLPSFYTHTIVNITIDLGMKRSGYGQPIASTLSNITLPMQDNNTDVYCIRSDQFSVYVHSTCKSSLWDNIFKRNCTDVLDATAVIKTGTCPFSFDKLNNYLTFNKFCLSLSPVGANCKFDVAARTRTNEQVVRSLYVIYEEGDNIVGVPSD
One may read the Kd as the concentration at which binding is half-saturated. Read a low Kd as higher affinity. On to B1, for which the Kd is 0.241 µM in assay [1], 1.54 µM in assay [2] and 0.0308 µM in assay [3].
